Consider 57 variants from the FLAb antibody collection (doi:10.7554/elife.23156).

Bounds are passed on as bounds.

B1: scFv; the commonest letter at each place (parent)
chain 1: EVKLDETGGGLVQPGRPMKLSCVASGFTFSDYWMNWVRQSPEKGLEWVAQIRNKPYNYETYYSDSVKGRFTISRDDSKSSVYLQMNNLRVEDMGIYYCTGSYYGMDYWGQGTSVTVS
chain 2: DVVMTQTPLSLPVSLGDQASISCRSSQSLVHSNGNTYLRWYLQKPGQSPKVLIYKVSNRFSGVPDRFSGSGSGTDFTLKISRVEAEDLGVYFCSQSTHVPWTFGGGTKLEIK

The variants in the data set “fluorescein” derive from B1. Put plainly: Kd (Tite-Seq). The settings on record: with fluorescein; format: scFv 4-4-20, heavy + light.
Variants of B1 are the subject of data set [1]. Put plainly: yeast surface expression (ratio to wild type); higher = more expressed. The settings on record: format: scFv 4-4-20, heavy + light.

By Kd is commonly meant the concentration at which binding is half-saturated.

Consider chain 1 T28F F29R, for which the Kd in the data set with fluorescein is ≥ 10 µM. Also, the yeast surface expression in data set [1] worked out at 0.797.

Consider chain 1 T28F F29H, for which the Kd in the data set with fluorescein was ≥ 10 µM. In addition, the yeast surface expression in data set [1] amounted to 0.638.

chain 1 T28D D31L: the Kd in the data set with fluorescein is 0.000804 µM. The yeast surface expression in data set [1] is 0.935.

Turning to chain 1 T28E S30W Y32D, the Kd with fluorescein is ≥ 10 µM. In addition, the yeast surface expression in data set [1] stood at 0.574.

Turning to chain 1 T28H M34H V37R, the Kd with fluorescein was ≥ 10 µM. Also, in data set [1], the yeast surface expression turned out to be 2.76.

Turning to chain 1 T28G F29P, in the data set with fluorescein, the Kd was ≥ 10 µM. The yeast surface expression in data set [1] was found to be 0.769.

As to chain 1 T28G N35C, in the data set with fluorescein, the Kd is ≥ 10 µM. Also, the yeast surface expression in data set [1] amounted to 0.586.

Turning to chain 1 S101T Y103Q G109I, the equilibrium dissociation constant (Kd) with fluorescein is ≥ 10 µM. In data set [1], the yeast surface expression was found to be 0.258.

For the variant chain 1 T28E S30I W33I, in the data set with fluorescein, the Kd is ≥ 10 µM. Further, the yeast surface expression in data set [1] was determined as 0.628.

Take chain 1 T28E Y32V: the Kd in the data set with fluorescein was ≥ 10 µM. In data set [1], the yeast surface expression was found to be 1.14.

Regarding chain 1 T28E Y32R, in the data set with fluorescein, the Kd turned out to be 0.0318 µM. In data set [1], the yeast surface expression was found to be 0.928.

As for chain 1 S101M G109W, the Kd with fluorescein is ≥ 10 µM. The yeast surface expression in data set [1] came to 0.231.

As to chain 1 S101M G109H, in the data set with fluorescein, the dissociation constant (Kd) was ≥ 10 µM. Besides, the yeast surface expression in data set [1] amounted to 0.229.

On to chain 1 S101V Y107H, for which the Kd with fluorescein is ≥ 10 µM. Further, the yeast surface expression in data set [1] is 0.556.

Regarding chain 1 S101L M105L, the Kd with fluorescein was ≥ 10 µM. In data set [1], the yeast surface expression came to 0.334.

For the variant chain 1 S101L M105F, the Kd with fluorescein is ≥ 10 µM. Also, the yeast surface expression in data set [1] stood at 0.521.

Turning to chain 1 S101T Y107E, the Kd with fluorescein was ≥ 10 µM. For the same variant, the yeast surface expression in data set [1] is 0.565.

For the variant chain 1 T28D M34G, in the data set with fluorescein, the Kd turned out to be 3.94 µM. Further, the yeast surface expression in data set [1] is 0.865.

Turning to chain 1 S101W Y103A, in the data set with fluorescein, the Kd is ≥ 10 µM. In addition, in data set [1], the yeast surface expression is 0.685.

In the case of chain 1 T28F N35C, in the data set with fluorescein, the dissociation constant (Kd) was ≥ 10 µM. Besides, in data set [1], the yeast surface expression is 0.644.

Take chain 1 S101Y Y102N D106Y: the Kd with fluorescein was ≥ 10 µM. Moreover, the yeast surface expression in data set [1] was 0.501.

As to chain 1 S101V M105H, the Kd in the data set with fluorescein is ≥ 10 µM. For the same variant, the yeast surface expression in data set [1] was 0.496.

With chain 1 S101V M105N, the equilibrium dissociation constant (Kd) with fluorescein was ≥ 10 µM. For the same variant, the yeast surface expression in data set [1] worked out at 0.675.

Turning to chain 1 T28F M34A, in the data set with fluorescein, the Kd turned out to be 0.0189 µM. In addition, the yeast surface expression in data set [1] stood at 0.566.

As to chain 1 T28G M34P N35T, the Kd with fluorescein was ≥ 10 µM. Further, the yeast surface expression in data set [1] turned out to be 0.318.

On to chain 1 S101M Y107H, for which the Kd with fluorescein is ≥ 10 µM. Besides, the yeast surface expression in data set [1] was determined as 0.483.

In the case of chain 1 T28I D31F, the Kd with fluorescein was found to be 0.00166 µM. The yeast surface expression in data set [1] amounted to 0.526.

For the variant chain 1 T28I D31A, in the data set with fluorescein, the Kd was found to be 0.00309 µM. The yeast surface expression in data set [1] was determined as 0.566.

Consider chain 1 T28I D31H, for which the Kd with fluorescein worked out at 0.00128 µM. Moreover, in data set [1], the yeast surface expression was found to be 0.699.

chain 1 S101Y M105T: the Kd with fluorescein was ≥ 10 µM. In data set [1], the yeast surface expression is 0.44.

Consider chain 1 S101Y Y103G, for which the Kd in the data set with fluorescein was ≥ 10 µM. Further, the yeast surface expression in data set [1] amounted to 0.935.

Take chain 1 S101N M105P: the Kd with fluorescein is ≥ 10 µM. Besides, in data set [1], the yeast surface expression stood at 0.537.

Regarding chain 1 S101P D106G W108F, in the data set with fluorescein, the Kd is ≥ 10 µM. The yeast surface expression in data set [1] is 0.244.

Regarding chain 1 S101P Y102V W108C, the Kd with fluorescein is ≥ 10 µM. Moreover, the yeast surface expression in data set [1] turned out to be 0.1.

As to chain 1 S101Y Y102W M105T, the Kd with fluorescein is ≥ 10 µM. Also, the yeast surface expression in data set [1] stood at 0.507.

chain 1 S101T Y103Q: the Kd with fluorescein was ≥ 10 µM. In data set [1], the yeast surface expression stood at 1.11.

For chain 1 S101T Y103P, in the data set with fluorescein, the Kd is ≥ 10 µM. Moreover, in data set [1], the yeast surface expression was 0.643.

On to chain 1 S101W D106I, for which, in the data set with fluorescein, the Kd is ≥ 10 µM. For the same variant, the yeast surface expression in data set [1] was 0.296.

Turning to chain 1 S101W D106S, the Kd in the data set with fluorescein is ≥ 10 µM. In addition, the yeast surface expression in data set [1] was determined as 0.516.

chain 1 S101M W108G: in the data set with fluorescein, the Kd was ≥ 10 µM. Further, in data set [1], the yeast surface expression was found to be 0.228.

For the variant chain 1 S101N Y107M, the Kd with fluorescein is ≥ 10 µM. Moreover, in data set [1], the yeast surface expression amounted to 0.616.

For chain 1 S101Y Y102G, in the data set with fluorescein, the Kd was ≥ 10 µM. The yeast surface expression in data set [1] was 0.796.

For the variant chain 1 S101Y Y102P, in the data set with fluorescein, the Kd was ≥ 10 µM. Also, the yeast surface expression in data set [1] was found to be 0.326.

With chain 1 T28I F29L, in the data set with fluorescein, the Kd is 0.0318 µM. Moreover, the yeast surface expression in data set [1] was found to be 0.851.

For chain 1 T28I F29R, the Kd in the data set with fluorescein was ≥ 10 µM. Also, the yeast surface expression in data set [1] is 0.695.

Take chain 1 T28D W36Q: the Kd in the data set with fluorescein is ≥ 10 µM. The yeast surface expression in data set [1] is 0.456.

With chain 1 T28D W36F, the equilibrium dissociation constant (Kd) with fluorescein amounted to 0.0154 µM. In addition, the yeast surface expression in data set [1] was found to be 0.895.

As for chain 1 T28E D31K, the Kd in the data set with fluorescein is 0.00184 µM. Besides, the yeast surface expression in data set [1] was 0.969.

For the variant chain 1 S101R G104P, in the data set with fluorescein, the dissociation constant (Kd) was ≥ 10 µM. The yeast surface expression in data set [1] was determined as 0.361.

For the variant chain 1 S101R G104T, the Kd in the data set with fluorescein was ≥ 10 µM. Further, in data set [1], the yeast surface expression was 0.647.

As for chain 1 S101W M105Q, the Kd with fluorescein was ≥ 10 µM. For the same variant, the yeast surface expression in data set [1] turned out to be 0.517.

Regarding chain 1 S101W M105I, the Kd with fluorescein was ≥ 10 µM. Besides, the yeast surface expression in data set [1] was 0.442.

With chain 1 S101Q Y102D W108I, the Kd with fluorescein is ≥ 10 µM. In addition, the yeast surface expression in data set [1] was found to be 0.495.

With chain 1 S101M G104I, the Kd with fluorescein is ≥ 10 µM. In addition, the yeast surface expression in data set [1] came to 0.274.

Consider chain 1 S101M G104W, for which the Kd with fluorescein is ≥ 10 µM. In addition, in data set [1], the yeast surface expression was 0.278.

With chain 1 T28E S30V, the Kd in the data set with fluorescein was 0.0015 µM. Besides, the yeast surface expression in data set [1] was 0.928.

In the case of chain 1 T28D S30P, in the data set with fluorescein, the Kd amounted to 0.0015 µM. For the same variant, the yeast surface expression in data set [1] worked out at 1.24.
